Assay results reported in paper PMC12583610, “Allosteric control of the bacterial ClpC/ClpP protease and its hijacking by antibacterial peptides” (The EMBO Journal, 2025).

Tests used:
[1] = molecular target: Staphylococcus aureus ClpC-F436A (Staphylococcus aureus) (UniProt Q2G0P5); assay: cross-linking
[2] = molecular target: Staphylococcus aureus ClpC-F436A (Staphylococcus aureus) (UniProt Q2G0P5); assay: dynamic light scattering
[3] = molecular target: Staphylococcus aureus ClpC wild-type (Staphylococcus aureus) (UniProt Q2G0P5); assay: cross-linking
[4] = molecular target: Staphylococcus aureus ClpC wild-type (Staphylococcus aureus) (UniProt Q2G0P5); assay: mass photometry
Mtb ClpC1 = Mtb ClpC1 (Mycobacterium tuberculosis, UniProt P9WPC9)
[5] = molecular target: T1, Staphylococcus aureus ClpP (Staphylococcus aureus), Q2G036; assay: negative stain EM; conditions: remark: other sources report otherwise
T1 chain: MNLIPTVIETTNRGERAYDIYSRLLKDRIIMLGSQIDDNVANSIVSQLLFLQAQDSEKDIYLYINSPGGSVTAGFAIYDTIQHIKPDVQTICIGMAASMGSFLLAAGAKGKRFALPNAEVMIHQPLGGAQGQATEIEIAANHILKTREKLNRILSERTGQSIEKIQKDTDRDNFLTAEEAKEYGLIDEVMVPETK

Staphylococcus aureus ClpC-F436A (from UniProt Q2G0P5) (natural protein)
stoichiometry N [1]: 6 | stoichiometry N [2]: 6

Staphylococcus aureus ClpC wild-type (from UniProt Q2G0P5) (natural protein)
stoichiometry N [3]: 6 | stoichiometry N [4]: 2

Nc1ncnc2c1ncn2[C@@H]1O[C@H](COP(=O)(O)OP(=O)(O)OP(=O)(O)O)[C@@H](O)[C@H]1O [ATP]
coupled PK/LDH NADH ATPase assay (Mtb ClpC1): ATPase activities of Mtb ClpC1-WT and indicated mutants were determined

B1: Staphylococcus aureus ClpP, Q2G036 1-195 (enzyme)
chain: MNLIPTVIETTNRGERAYDIYSRLLKDRIIMLGSQIDDNVANSIVSQLLFLQAQDSEKDIYLYINSPGGSVTAGFAIYDTIQHIKPDVQTICIGMAASMGSFLLAAGAKGKRFALPNAEVMIHQPLGGAQGQATEIEIAANHILKTREKLNRILSERTGQSIEKIQKDTDRDNFLTAEEAKEYGLIDEVMVPETK
stoichiometry N [5]: 14
